Assay results reported in the supplement of paper PMC9112550, “Optimization of the antimicrobial peptide Bac7 by deep mutational scanning” (BMC Biology, 2022).

Each sequence was assayed on Escherichia coli TOP10 (assay: shrunken log2 fold change of peptide-encoding DNA abundance (4.5 h post-induction vs induction); higher = less antimicrobial activity (less host growth inhibition)). Conditions: time post-induction: 4.5 h; library: site-saturation at positions 5, 18, 19, 20.
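Note: peptides expressed intracellularly from a pBAD plasmid library in pooled LB shake-flask culture, induced with 0.3% L-arabinose, DNA abundance read by NGS, three biological replicates, DESeq2 with apeglm shrinkage.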

| Sequence | shrunken log2 fold change |
| --- | --- |
| RRIRYRPPRLPRPRPRPKYWPRP | -0.726 |
| RRIRFRPPRLPRPRPRPCWKPRP | -0.0141 |
| RRIRCRPPRLPRPRPRPMKWPRP | 0.0655 |
| RRIRKRPPRLPRPRPRPFVEPRP | 0.0241 |
| RRIRDRPPRLPRPRPRPGPLPRP | 0.0434 |
| RRIRWRPPRLPRPRPRPSCWPRP | 0.0114 |
| RRIRHRPPRLPRPRPRPHHWPRP | -0.156 |
| RRIRGRPPRLPRPRPRPWCKPRP | -0.184 |
| RRIRWRPPRLPRPRPRPSHKPRP | -0.193 |
| RRIRQRPPRLPRPRPRPHCDPRP | 0.0241 |
| RRIRSRPPRLPRPRPRPCCDPRP | -0.284 |
| RRIRQRPPRLPRPRPRPPHQPRP | 0.363 |
| RRIRFRPPRLPRPRPRPTPYPRP | 0.0647 |
| RRIRHRPPRLPRPRPRPRIHPRP | -0.473 |
| RRIRGRPPRLPRPRPRPPICPRP | 0.155 |
| RRIRCRPPRLPRPRPRPCMNPRP | -0.627 |
| RRIRMRPPRLPRPRPRPPNFPRP | 0.35 |
| RRIRVRPPRLPRPRPRPPVAPRP | 0.466 |
| RRIRFRPPRLPRPRPRPPNEPRP | 0.0211 |
| RRIRERPPRLPRPRPRPYQYPRP | -0.0129 |
| RRIRHRPPRLPRPRPRPVYQPRP | -0.359 |
| RRIRVRPPRLPRPRPRPMLVPRP | 0.0916 |
| RRIRWRPPRLPRPRPRPKGHPRP | 0.108 |
| RRIRQRPPRLPRPRPRPNHTPRP | -0.0975 |
| RRIRDRPPRLPRPRPRPDYWPRP | -0.00116 |

| Sequence | shrunken log2 fold change |
| --- | --- |
| RRIRYRPPRLPRPRPRPHMAPRP | -0.155 |
| RRIRVRPPRLPRPRPRPLDTPRP | -0.257 |
| RRIRGRPPRLPRPRPRPAAGPRP | 1.18 |
| RRIRWRPPRLPRPRPRPLFQPRP | -0.0127 |
| RRIRVRPPRLPRPRPRPKFDPRP | 0.21 |
| RRIRLRPPRLPRPRPRPMCWPRP | 0.0663 |
| RRIRMRPPRLPRPRPRPGEMPRP | 0.0709 |
| RRIRVRPPRLPRPRPRPTTCPRP | -0.0091 |
| RRIRPRPPRLPRPRPRPVSRPRP | 0.0925 |
| RRIRKRPPRLPRPRPRPCRCPRP | 0.0976 |
| RRIRFRPPRLPRPRPRPYAFPRP | -0.193 |
| RRIRWRPPRLPRPRPRPHYHPRP | -0.506 |
| RRIRVRPPRLPRPRPRPTNSPRP | -0.436 |
| RRIRYRPPRLPRPRPRPWFYPRP | -1.48 |
| RRIRCRPPRLPRPRPRPANSPRP | -0.685 |
| RRIRDRPPRLPRPRPRPWYCPRP | -0.137 |
| RRIRYRPPRLPRPRPRPHFDPRP | 0.144 |
| RRIRIRPPRLPRPRPRPMSRPRP | -0.24 |
| RRIRARPPRLPRPRPRPIWCPRP | 0.00499 |
| RRIRSRPPRLPRPRPRPWKSPRP | -0.0239 |
| RRIRVRPPRLPRPRPRPDHSPRP | -0.252 |
| RRIRMRPPRLPRPRPRPPPEPRP | 1.82 |
| RRIRDRPPRLPRPRPRPNKMPRP | -0.195 |
| RRIRSRPPRLPRPRPRPNTLPRP | -0.373 |
| RRIRPRPPRLPRPRPRPEDCPRP | -0.0873 |

| Sequence | shrunken log2 fold change |
| --- | --- |
| RRIRFRPPRLPRPRPRPRCIPRP | -0.606 |
| RRIRDRPPRLPRPRPRPQPTPRP | 0.0584 |
| RRIRQRPPRLPRPRPRPVLSPRP | -0.0147 |
| RRIRLRPPRLPRPRPRPADMPRP | -0.445 |
| RRIRFRPPRLPRPRPRPRPGPRP | 0.837 |
| RRIRQRPPRLPRPRPRPNYDPRP | -0.257 |
| RRIRLRPPRLPRPRPRPRKVPRP | 0.0909 |
| RRIRDRPPRLPRPRPRPGGQPRP | 0.211 |
| RRIRERPPRLPRPRPRPFINPRP | -0.991 |
| RRIRPRPPRLPRPRPRPTTKPRP | 0.253 |
| RRIRYRPPRLPRPRPRPYDNPRP | -0.0463 |
| RRIRWRPPRLPRPRPRPISNPRP | -0.0292 |
| RRIRKRPPRLPRPRPRPWAKPRP | 0.0651 |
| RRIRGRPPRLPRPRPRPEFTPRP | 0.74 |
| RRIRERPPRLPRPRPRPMCEPRP | 0.0303 |
| RRIRTRPPRLPRPRPRPVYYPRP | -1.24 |
| RRIRWRPPRLPRPRPRPKMDPRP | 0.135 |
| RRIRWRPPRLPRPRPRPEWNPRP | 0.482 |
| RRIRTRPPRLPRPRPRPGTQPRP | -0.036 |
| RRIRKRPPRLPRPRPRPKPKPRP | 0.464 |
| RRIRGRPPRLPRPRPRPWGMPRP | 0.0572 |
| RRIRERPPRLPRPRPRPDWYPRP | -0.297 |
| RRIRNRPPRLPRPRPRPMEAPRP | 0.0369 |
| RRIRPRPPRLPRPRPRPHICPRP | -0.0442 |
| RRIRMRPPRLPRPRPRPLANPRP | 0.235 |
